Experimental data from patent publication US20230331811A1 (CCOA THERAPEUTICS, published 2023).

How the values were obtained:
[1] = target: T1, Recombinant human ectodomain αIIbβ3, activated (high-affinity ligand binding conformation) (human, UniProt P08514 32-993; P05106 27-718, carboxyl groups coupled to the DETA silane layer by EDC/sulfo-NHS); assay: flow cytometry sandwich assay on αIIbβ3 coupled beads (anti-fibrinogen mouse IgG, FITC-labelled detection antibody), apparent Kd
T1 construct: Also used here for the ELISA plate coated in a buffer with the same cations

[2] = target: T1, Recombinant human ectodomain αIIbβ3, …; assay: sandwich ELISA, αIIbβ3 coated on a 96-well plate in a buffer with Mg2+, Mn2+ and Ca2+ (anti-fibrinogen mouse IgG, anti-mouse IgG-HRP)
Experimental: Fibrinogen ELISA Assay. To ensure similar immobilization levels of recombinant human ectodomain aIIbβ3 between the ELISA plate and integrin coupled magnetic beads, the wells of a 96-well micro plate (Nunc MaxiSorp) were incubated with the same aIIbβ3 concentration per surface area as during the preparation of the magnetic beads, 6.6×10⁴ μg·mL⁻¹·c⁻². Each well was coated with aIIbβ3 or control proteins (BSA and β3−/− platelet lysate) by incubation of 6 μg/μL protein in binding buffer (TRIS buffered saline with 0.05% TWEEN-20 and 1 mM each of MgCl₂, MnCl₂ and CaCl₂)) at 4° C. overnight. Incubation of 3% skim milk (ED Millipore) and 2% TWEEN-20 for 1 hour at 37° C. was used for blocking. The concentration of aIIbβ3 per surface area of bead used when coating SAM coated beads is 6.6×10⁴ μg·mL⁻¹·cm⁻², therefore the wells of 96 well plates used were coated with the same density EDC/NHS quenching achieved by increase pH to 8.6. Bead concentration for synthesis: 6×10⁹ beads·mL⁻¹; Integrin-bead reaction concentration=250 μg·mL⁻¹; Integrin Used=6.6×10⁴ μg·mL⁻¹·cm⁻²; Well Surface Area (50 μL)=0.93 cm²; Concentration/wee for ELISA=6×10⁴ μg·mL⁻¹ (6 μL/well in 50 μL total volume); Stock [αIIbβ3]=5×10⁵ μg·mL⁻¹.
Fibrinogen binding. […] The OPD peroxidase reaction was stopped after 1 hour with 2 M H₂SO₄ and the absorbance was read at 492 nm. […]

[3] = target: T1, Recombinant human ectodomain αIIbβ3, …; assay: flow cytometry dose-response of Alexa488-fibrinogen on activated αIIbβ3 beads, DETA signal subtracted, one site specific binding fit
Experimental: 3 μL of 1×10⁸ beads/mL were mixed with the desired concentration of fluorescently labelled antibody or ligand to a final volume of 100 μL in PBS and incubated for 1 h. Following incubation, the samples were diluted to a final volume of 1 mL and flow cytometrically analyzed. Samples that were compared with one another were run on the same instrument under the same instrumental conditions (signal gain, flow rate etc.). Any differences in absolute mean fluorescence intensity (MFI) value between different experiments was due to variance between the two.
αIIbβ3 Coupled Bead Flow Cytometry Analysis. […] Ferromagnetic silica particles at each stage of the coating fabrication process were analyzed with flow cytometry for binding to (FIGS. 2A and 2B) PSI E1, and (FIG. 2C to 2F) fibrinogen. […] After the activation step, the beads were analyzed with flow cytometry for binding of Alexa488™ labelled fibrinogen (native αIIbβ3 ligand) and PAC-1 (an antibody specific for the active upright conformation of αIIbβ3) (See Table 2, FIGS. 2G to 2I). […] All analyses conducted as n≥3, data presented as mean±SD, analyzed with a two-tailed t-test, ns=not significant *P<0.05, **P<0.01, ***P<0.001 and ****P<0.0001.

T1 sequence (P08514 other isoform, or with tags, fused parts or gaps limits assumed, chain 1 of 2): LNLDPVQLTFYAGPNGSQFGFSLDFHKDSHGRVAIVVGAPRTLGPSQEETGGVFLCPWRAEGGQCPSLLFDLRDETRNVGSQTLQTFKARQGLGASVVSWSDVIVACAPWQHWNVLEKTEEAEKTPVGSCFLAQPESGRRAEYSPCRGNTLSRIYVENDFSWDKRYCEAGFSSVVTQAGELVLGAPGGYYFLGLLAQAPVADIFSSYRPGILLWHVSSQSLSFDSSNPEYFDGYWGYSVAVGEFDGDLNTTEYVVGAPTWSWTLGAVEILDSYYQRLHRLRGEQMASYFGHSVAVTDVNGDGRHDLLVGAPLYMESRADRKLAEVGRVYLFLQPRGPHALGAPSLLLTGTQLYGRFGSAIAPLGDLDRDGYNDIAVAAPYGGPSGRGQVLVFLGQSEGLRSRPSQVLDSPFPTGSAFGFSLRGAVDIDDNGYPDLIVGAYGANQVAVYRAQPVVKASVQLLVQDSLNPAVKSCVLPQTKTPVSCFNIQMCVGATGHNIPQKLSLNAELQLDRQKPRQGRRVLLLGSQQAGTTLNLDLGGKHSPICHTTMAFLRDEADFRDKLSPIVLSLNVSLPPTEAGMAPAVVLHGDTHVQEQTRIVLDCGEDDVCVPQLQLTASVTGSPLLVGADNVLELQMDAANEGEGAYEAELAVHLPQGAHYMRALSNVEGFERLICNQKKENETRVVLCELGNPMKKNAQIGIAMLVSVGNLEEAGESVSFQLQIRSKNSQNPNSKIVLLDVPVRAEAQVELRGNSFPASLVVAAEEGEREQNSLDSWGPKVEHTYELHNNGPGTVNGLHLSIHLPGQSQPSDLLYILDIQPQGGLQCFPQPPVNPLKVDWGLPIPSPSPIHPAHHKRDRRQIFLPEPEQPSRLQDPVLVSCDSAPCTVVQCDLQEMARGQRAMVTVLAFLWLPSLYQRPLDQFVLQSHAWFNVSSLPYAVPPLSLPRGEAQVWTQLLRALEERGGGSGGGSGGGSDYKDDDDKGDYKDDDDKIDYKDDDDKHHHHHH
T1 sequence (P05106 other isoform, or with tags, fused parts or gaps limits assumed, chain 2 of 2): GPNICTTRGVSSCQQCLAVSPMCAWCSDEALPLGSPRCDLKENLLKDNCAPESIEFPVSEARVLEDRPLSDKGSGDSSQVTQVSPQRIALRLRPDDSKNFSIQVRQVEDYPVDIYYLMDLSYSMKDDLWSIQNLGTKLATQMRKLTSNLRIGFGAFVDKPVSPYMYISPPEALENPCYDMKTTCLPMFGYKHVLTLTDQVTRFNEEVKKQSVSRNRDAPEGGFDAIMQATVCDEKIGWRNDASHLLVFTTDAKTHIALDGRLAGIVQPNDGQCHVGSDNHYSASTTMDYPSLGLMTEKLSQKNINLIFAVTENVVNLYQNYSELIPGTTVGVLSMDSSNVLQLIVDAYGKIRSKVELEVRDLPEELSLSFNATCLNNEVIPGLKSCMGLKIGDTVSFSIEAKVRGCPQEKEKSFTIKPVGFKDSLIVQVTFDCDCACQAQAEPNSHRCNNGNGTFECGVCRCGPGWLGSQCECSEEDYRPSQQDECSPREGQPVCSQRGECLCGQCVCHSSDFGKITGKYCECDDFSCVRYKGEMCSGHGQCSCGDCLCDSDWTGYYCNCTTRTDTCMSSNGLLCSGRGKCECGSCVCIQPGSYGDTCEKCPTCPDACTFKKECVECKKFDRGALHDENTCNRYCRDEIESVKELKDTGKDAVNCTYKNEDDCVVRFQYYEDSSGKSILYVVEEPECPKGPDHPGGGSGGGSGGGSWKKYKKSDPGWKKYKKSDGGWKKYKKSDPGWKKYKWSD

- Kd [1]: 210 nM
- Kd [2]: 2200 nM
- Kd [3]: 78 nM
B1: Fibrinogen (ligand)
alpha: ADSGEGDFLAEGGGVRGPRVVERHQSACKDSDWPFCSDEDWNYKCPSGCRMKGLIDEVNQDFTNRINKLKNSLFEYQKNNKDSHSLTTNIMEILRGDFSSANNRDNTYNRVSEDLRSRIEVLKRKVIEKVQHIQLLQKNVRAQLVDMKRLEVDIDIKIRSCRGSCSRALAREVDLKDYEDQQKQLEQVIAKDLLPSRDRQHLPLIKMKPVPDLVPGNFKSQLQKVPPEWKALTDMPQMRMELERPGGNEITRGGSTSYGTGSETESPRNPSSAGSWNSGSSGPGSTGNRNPGSSGTGGTATWKPGSSGPGSTGSWNSGSSGTGSTGNQNPGSPRPGSTGTWNPGSSERGSAGHWTSESSVSGSTGQWHSESGSFRPDSPGSGNARPNNPDWGTFEEVSGNVSPGTRREYHTEKLVTSKGDKELRTGKEKVTSGSTTTTRRSCSKTVTKTVIGPDGHKEVTKEVVTSEDGSDCPEAMDLGTLSGIGTLDGFRHRHPDEAAFFDTASTGKTFPGFFSPMLGEFVSETESRGSESGIFTNTKESSSHHPGIAEFPSRGKSSSYSKQFTSSTSYNRGDSTFESKSYKMADEAGSEADHEGTHSTKRGHAKSRPVRGIHTSPLGKPSLSP
beta: QGVNDNEEGFFSARGHRPLDKKREEAPSLRPAPPPISGGGYRARPAKAAATQKKVERKAPDAGGCLHADPDLGVLCPTGCQLQEALLQQERPIRNSVDELNNNVEAVSQTSSSSFQYMYLLKDLWQKRQKQVKDNENVVNEYSSELEKHQLYIDETVNSNIPTNLRVLRSILENLRSKIQKLESDVSAQMEYCRTPCTVSCNIPVVSGKECEEIIRKGGETSEMYLIQPDSSVKPYRVYCDMNTENGGWTVIQNRQDGSVDFGRKWDPYKQGFGNVATNTDGKNYCGLPGEYWLGNDKISQLTRMGPTELLIEMEDWKGDKVKAHYGGFTVQNEANKYQISVNKYRGTAGNALMDGASQLMGENRTMTIHNGMFFSTYDRDNDGWLTSDPRKQCSKEDGGGWWYNRCHAANPNGRYYWGGQYTWDMAKHGTDDGVVWMNWKGSWYSMRKMSMKIRPFFPQQ
gamma: YVATRDNCCILDERFGSYCPTTCGIADFLSTYQTKVDKDLQSLEDILHQVENKTSEVKQLIKAIQLTYNPDESSKPNMIDAATLKSRKMLEEIMKYEASILTHDSSIRYLQEIYNSNNQKIVNLKEKVAQLEAQCQEPCKDTVQIHDITGKDCQDIANKGAKQSGLYFIKPLKANQQFLVYCEIDGSGNGWTVFQKRLDGSVDFKKNWIQYKEGFGHLSPTGTTEFWLGNEKIHLISTQSAIPYALRVELEDWNGRTSTADYAMFKVGPEADKYRLTYAYFAGGDAGDAFDGFDFGDDPSDKFFTSHNGMQFSTWDNDNDKFEGNCAEQDGSGWWMNKCHAGHLNGVYYQGGTYSKASTPNGYDNGIIWATWKTRWYSMKKTTMKIIPFNRLTIGEGQQHHLGGAKQAGDV
modifications: Alexa 488 dye on lysines (positions not stated) in the results at the 2nd table and paragraph 103; unlabelled in the sandwich assay of paragraph 112. The native protein is a disulfide-linked dimer of the three chains; each chain is given once.
notes: It calls the protein 'bivalent fibrinogen'; also called Fg; Alexa488 labelled fibrinogen
